Experimental data taken from publication PMC10683372.
Several values for one entry are separate records, joined by “and”; a condition that tells them apart may be missing. Equal entries are not always repeated. Bridge positions count the residues as written; N and C are the ends.

Legend:
α‐thrombin (αT) = test: enzyme inhibition (amidolytic activity on S2238)
[1] = biological target: recombinant wild type α‐thrombin; test: enzyme inhibition (amidolytic activity on S2238)
[2] = biological target: [F]‐Haem(45–57), N^α‐fluoresceinated analogue of the peptide 45–57 (Haemadipsa sylvestris); test: other fluorescence titration; thrombin (S195A by the methods) or its hirudin complex added to the fluoresceinated peptide (60 nM); excitation 492 nm, emission 516 nm; TBS, 25°C
[3] = biological target: recombinant wild type α‐thrombin; test: other fluorescence titration; intrinsic fluorescence of thrombin (50 nM) at 334 nm recorded at increasing peptide concentration; TBS pH 7.4, 0.15 M NaCl, 0.1% PEG-8000, 25°C; one-site model

## full‐length haemadin Met5nLeu analogue (natural protein)
α‐thrombin (αT)
  fold increase of KI(fast) against wild-type haemadin: 2 fold
  fold increase of KI(slow) against wild-type haemadin: 2 fold

## Haem(1–10) wild type (peptide)
α‐thrombin (αT)
  Ki: 1900 nM

## full‐length wild‐type haemadin 1–57 (natural protein)
[1]
  Ki: 0.000214 nM
  koff: 4.83e-05 s⁻¹
  kon: 2.25e+08 M⁻¹ s⁻¹
α‐thrombin (αT)
  Ki: 0.00023 nM and 0.0015 nM

## preformed S195A‐hirudin complex
[2]
  Kd: 12800 nM

## catalytically inactive αT S195A mutant (enzyme)
[2]
  Kd: 350 nM

## Haem(45–57) (peptide)
[3]
  Kd: 1600 nM

## H-IRFGMGKVPCPDGEVGYTCDCGEKICLYGQSCNDGQCSGDPKPSSEFEEFEIDEEEK-OH (disulfide 10-19, 21-32, 26-37)
other
  T m higher than hirudin: 22 °C
